Results reported in article doi:10.1101/2025.10.25.684501.

Biological target: reconstituted silk fibroin (RSF) labelled with DyLight 650 (Bombyx mori) (UniProt P05790)
Test: MST

Kd: 24 nM
Substance: wild-type (WT) α-synuclein (from UniProt P37840 1-140) (natural protein)
